Biological target: T1, recombinant purified GDF-8 (UniProt O14793 267-375, limits assumed)
T1 sequence (looked up): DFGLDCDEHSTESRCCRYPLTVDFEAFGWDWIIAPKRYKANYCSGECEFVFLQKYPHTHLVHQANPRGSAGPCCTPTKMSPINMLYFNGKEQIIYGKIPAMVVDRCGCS
Assay: cell-based or functional assay

B1: mouse GASP1 cloned with a C-terminal V5-His tag (GASP1-V5-His) (other, not shown: small tags and cut ends)
chain: LPPIRYSHAGICPNDMNPNLWVDAQSTCKRECETDQECETYEKCCPNVCGTKSCVAARYMDVKGKKGPVGMPKEATCDHFMCLQQGSECDIWDGQPVCKCKDRCEKEPSFTCASDGLTYYNRCFMDAEACSKGITLSVVTCRYHFTWPNTSPPPPETTVHPTTASPETLGLDMAAPALLNHPVHQSVTVGETVSFLCDVVGRPRPELTWEKQLEDRENVVMRPNHVRGNVVVTNIAQLVIYNVQPQDAGIYTCTARNVAGVLRADFPLSVVRGGQARATSESSLNGTAFPATECLKPPDSEDCGEEQTRWHFDAQANNCLTFTFGHCHHNLNHFETYEACMLACMSGPLATCSLPALQGPCKAYVPRWAYNSQTGLCQSFVYGGCEGNGNNFESREACEESCPFPRGNQHCRACKPRQKLVTSFCRSDFVILGRVSELTEEQDSGRALVTVDEVLKDEKMGLKFLGREPLEVTLLHVDWTCPCPNVTVGETPLIIMGEVDGGMAMLRPDSFVGASSTRRVRKLREVMYKKTCDVLKDFLGLQ
IC50 for inhibition of GDF-8 in the reporter gene assay ((CAGA)12 luciferase, RD cells, 20 ng/ml GDF-8): ~3 nM
